A short description of this data set: soluble on expression in E. coli; label from the status in PepcDB or PDB records.
With “MRTQWPSPAKLNLFLYITGQRADGYHTLQTLFQFLDYGDTISIELRDDGDIRLLTPVEGVEHEDNLIVRAARLLMKTAADSGRLPTGSGANISIDKRLPMGGGLGGGSSNAATVLVALNHLWQCGLSMDELAEMGLTLGADVPVFVRGHAAFAEGVGEILTPVDPPEKWYLVAHPGVSIPTPVIFKDPELPRNTPKRSIETLLKCEFSNDCEVIARKRFREVDAVLSWLLEYAPSRLTGTGACVFAEFDTESEARQVLEQAPEWLNGFVAKGANLSPLHRAMLLEHHHHHH”, the “soluble on expression in E. coli” value was “not soluble”.

For “MRTVAALLFLFTCLESFESSSATPVCTNGFTLINNKCLKLLNTPVNHKAAEISCSSFGATLVTVKNDHDNQAIATIVGSSTPLVWLGLYCFSSNSSQCLWDDESGSARSYNNFSSGFPLVALGQCVYYSTQGALTGKWLSAECESQRMAFVCELPTTFADNCLHNYNGYCYTFSSSPQTFIGAQSTCAQTCGNLASVHSPNENRYITTFAPQDYYYIGAIWKTDYSLRWMDGSAWDYNNIDPIYPNRYNYCLHMSTITTSGSGFWYGDDCSLSRKYVCKREAGVPCTTVPPPVTVRPSSTNPSNCNAGLLMSPGVFTSPNYPQNYFNNENCTYQLSTLGSYRITLKFSNFRTESNYDFVSVYDGPTTSSPSLGRYSGNIGSFYVSSSENNMLVTFTSDAGVVFQGFTARFYSVVHRS”, the “soluble on expression in E. coli” value was “not soluble”.

“MRTVVVIPTYNERDTIERLINDVLAQDKDIHVLVVDDNSPDGTGEIVDRLSEGKGRVHVLHRPGKMGLGSAYRQGFAAALAMDADFIVEMDADYSHDPATLPRFLEAMEGCDLVIGSRYLNGISVVNWPLRRLMLSYFANWYTRLITGLRIMDCTSGFKCFRRRVIESIDMSTIRSDGYSFQIEMNYRCVEKGFQVREIPIIFIDRRSGSSKMSKKIVREAVFMVWKLKLGSVFGALFRLEHHHHHH”: the “soluble on expression in E. coli” value is on record as “not soluble”.

Turning to “MRVATFSLVAQDPKTGDLGVAVASKFLAVGAVVPFAEAGVGAIATQSYANPRYGPQGLALLRQGASPEGVLEAFRRTDPGLEKRQFGLVAATGESLTFTGAECHPWAGGVAGKGFAAQGNLLSGSEVVEAMVETFLTAQAPFPERLLLALKAGEEAGGDRRGKQSAALLVVGEGKGYGGLWDRYVDLRVDDHPEPIDELFRLLSLHRLLFERPKGRRPLTEEEVRFFQGVLGRLGLYAGEAHGVFDEATERAFLALIGMENLEERYRGGPEVDEATLSYLKGRYGWS”, the “soluble on expression in E. coli” value was “soluble”.

For the sequence “MRVAYVLSSPRAASHKLGQMILPQLEAGTHGVEVVGIFFFDDNTLVLQKGNPIGERLAKVAKEKGILLMMCDLCALERGLAEGEPRWCTPEGEGRKTPGTCRVSPHVVEGVEVGCFPDLYRALAGRVDQVITL”, the “soluble on expression in E. coli” value is given as “soluble”.

“MRVDEFLKERNINVGDFVRITKEEDGEEVTYEGYIMPPYELSAGDTLVLKLENGYNIGIALEKIRRIEVLERAKVKPEVHFEALIEGKPGLPEVTIIGTGGTIASRIDYETGAVYPAFTAEELAKALPEIFEVANVKPKLLFNIFSEDMKPKHWVKIAHEVAKALNSGDYGVVVAHGTDTMGYTAAALSFMLRNLGKPVVLVGAQRSSDRPSSDAAMNLICSVRMATSEVAEVMVVMHGETGDTYCLAHRGTKVRKMHTSRRDAFRSINDVPIAKIWPNGEIEFLRKDYRKRSDEEVEVDDKIEEKVALVKVYPGISSEIIDFLVDKGYKGIVIEGTGLGHTPNDIIPSIERAVEEGVAVCMTSQCIYGRVNLNVYSTGRKLLKAGVIPCEDMLPETAYVKLMWVLGHTQNLEEVRKMMLTNYAGEITPYTRFDTYLR”: the “soluble on expression in E. coli” value is given as “soluble”.

In the case of “MRVISGEYGGRRLKALDGDNTRPTTDKVKESIFNMIGPYFDGGMALDLYSGSGGLAIEAVSRGMDKSICIEKNFAALKVIKENIAITKEPEKFEVRKMDANRALEQFYEEKLQFDLVLLDPPYAKQEIVSQLEKMLERQLLTNEAVIVCETDKTVKLPETIGTLKKTRETVYGITQVTIYRQEA”, the “soluble on expression in E. coli” value is “soluble”.

As to “MRVMAKIELLAKFTQIALPNSHPLLKKVLNYAKKHFSQCHMLSSSLLILNDTECFKKNYLLNWVYHALECVHEKDISAHSLEEVLQKSHLPIRIKIMAQNTLLEKIEVKVLTFGAEYALFITKHPIAKRFLRQKFSGCVFLETQDELHIRGDSERFWELIVTLNENRIVHNACLDFIYPNGFGKDSYTTMAERKLKECYKTLGFIKHEDFSEVKKRYLELAKTYHPDLCDLKEKKALYAKRFAIIQEAYRHIKKHALEHHHHHH”, the “soluble on expression in E. coli” value is recorded as “soluble”.

Regarding “MRWKRTLQLLDVHCEGEIGRVVTGGAPKIPGNTVAEQLHWMNTDPQGEALRRFLTLEPRGTPMGSVDLLLPPKHPDAHAAFVILQPDQAHASSGSNSICATTALLESGMVEMQEPETVIILETAAGLVKATATCRDGRCEKVKLTMVPSFVHELDVSIDTPEWGRVTMDISYGGIFYALVDVRQIGLTIEKANAAKLVAAGMTLKDLVNREMTVVHPEIPAISGVAYVMFRDVDADGSIRTCTTMWPGRADRSPCGTGNSANLATLYARGKVKVGDEYKSRSIIGSEFDVGLSAVTEVAGRPAVIPTIAGRGFTFGLHQVGLDPFDPLGDGFAMTDVWGPEAGNI”, the “soluble on expression in E. coli” value was “not soluble”.

“MRYEIADNYYAFWFRFVYPNRKLVERELYKEALELVKRDYNHYMGRVFEKASLDFLWKRFAFERAGRWWSREEEIDVVGVKRGMAYFFEVKWKDLSEREARRSLEHHHHHH”: the “soluble on expression in E. coli” value is reported as “not soluble”.

With “MRYIMASPINSGIMMANLCPSTFLDKNRNVAAELDIKNNEKKYSPGSNFAKWMLQEIKRLILNIMSGSRSINTDILDYFHPMPGTENNGNRTWVAATGEDEYIEIKQTGDKSFNITLVGRDKPSRKEIPYSGVAVATIIKSLSEKTSALETHSADTVLRKKLVNSIVMKNTDFNYEIPAGILSNIYDLLKLRIKKDEGYVPVQESFKRTDVFFDSMIMDAH”, the “soluble on expression in E. coli” value is “not soluble”.

Regarding “MRYQKLEIQEANWQWKYLLKKHREGENITKHTEQSLIELKVQFLTTLQHSPAEIEQWIKAEMTAEQRKRMRQSIRAKRKRFFNAEKLTTKKKSIDLDYASWLRLSKYSKTHAMTLSETINHLIDERENQHLYSEQMAKMKASLKDLLK”, the “soluble on expression in E. coli” value is listed as “not soluble”.

Take “MRYWLMKSEPSEVSIDDLAARPGQTVPWDGVRNYQARNFMRNQMQPGDLVFFYHSSCPEPGIAGVVEVSRLAYPDETQFDSASKYFDPKSTRENPRWFNVEVRFLRKTRLLSLRELRSYPELAGMRILQKGNRLSITPVDPSEWKFIEAKLQSLEHHHHHH”: the “soluble on expression in E. coli” value is reported as “not soluble”.

As to “MSAACWEEPWGLPGGFAKRVLVTGGAGFIASHMIVSLVEDYPNYMIINLDKLDYCASLKNLETISNKQNYKFIQGDICDSHFVKLLFETEKIDIVLHFAAQTHVDLSFVRAFEFTYVNVYGTHVLVSAAHEARVEKFIYVSTDEVYGGSLDKEFDESSPKQPTNPYASSKAAAECFVQSYWEQYKFPVVITRSSNVYGPHQYPEKVIPKFISLLQHNRKCCIHGSGLQTRNFLYATDVVEAFLTVLKKGKPGEIYNIGTNFEMSVVQLAKELIQLIKETNSESEMENWVDYVNDRPTNDMRYPMKSEKIHGLGWRPKVPWKEGIKKTIEWYRENFHNWKNVEKALEPFPV”, the “soluble on expression in E. coli” value was “soluble”.

In the case of “MSAEGLDKDFCGAIIPDSFFPIEKLRNYTDMGIIREFAKGSAIIMPGEDTTSMIFLMDGKIKLDIIFEDGSEKLLYYAGSNSLIGRLYPTGNNIYATAMEQTRTCWFSEECLRVIFRTDEDMIFEIFKNYLTKVAYYARQVAEINTYNPTIRILRLFYELCSSQGKRVGDTYEITMPLSQKSIGEITGAHHVTVSKVLACLKKENILDKKKNKFIVYNLEELKHLSEQTSYY”, the “soluble on expression in E. coli” value is “soluble”.

Consider “MSAEPEFVAARFLPEGERFLVEPLGGGLINRTWLVSPAASPRFVLQRLNTRVFAHPGRITVNLCRIQGRVKQGRSGLAEHWPDLVAPRAGGDAFIDAEGGYWRAQRYLEGSRVLEHIATERQALEVGRVLGTFHAALGEIDCTELEDTLPDFHIAPAYLARLDAVRTSAGAADPSVRQALDFVEARRDFVPVLERAKAAGRLALRIIHGDPKLANILFDRDGERALTLIDLDTVKPGLVHYDIGDCLRSCCNRSGESSDDPGAARFDLALCEAILRGYLAAAGDMLTAEDRDHLYDAIRLIPLELGIRFLADHLAGDVYFRVESRGQNLRRARVQFRLVECIEADETAIRRIVAAPSPSMETGEGLEHHHHHH”, for which the “soluble on expression in E. coli” value was “not soluble”.

Take “MSAEYGQYGYYGGAGGAQTTTTPAAALAASIPATSVYGEQRPTFSEDGTGAPYSTILNLVGSAAVNSDISYDTSSKDPHMIRARVFIGNIARAIITRDDIIELFRPFGKIIAVNYFAQQGFGFVQFNEAGSADESCRSLNGMSWKACCLDVHLAMLGSLRKPTGNEGRQGNTIAPAPLPVGKPLTQHAVDTSAQSAKRPYEDEEYEIFKQNKRNKQFANGDTTINEQLAPNEMCDTMVCGYCRFVTSDFEEFKEHRIAGCNKYKDPEEPRHRLKCATCSQRFLGAWGLLEHLTDFHRMLLYTEEKMTPNDLAQMRGGSVSTPSSIPETPASGSAAPAAPNSANSTPSHHIVEGAPLSYSSNNGTPQI”: the “soluble on expression in E. coli” value was “not soluble”.

As for “MSAISPDTKSFAIPTLADEGSSSKPASSLDLPKHESIRFKPIKTLASRIDGSEYYDEASMEKVMEMLEIGRTDEAVAYADTLYSNIIDDEQQDIVTIAEYVKILVVLRQWRRISHIIARGNYHQIHIVFAYYAATALFQRKLYEDVAELSVGHLLPSNGQIGPLPVRTLSQVTGRYVEEERMKYSFANMAELDNSSKKLRMVPALMITIAESFLKLMNRDAAMICINYALSLDNTTLHVERLMAKYNLVEPAMWEKYRKVRNEQLKLHEGNHDPRILMERAQRAYEMGRFRETKKITDELFDLFGPHPECIILRIHCLTMLKDSRSLLELGHQLVSDDPHIPLPWYCVAMYYYSIGANSRARNFISKCTMMDSTFAEGWVAFGHILHYEVEHEQSMSCYYRASKLVDKSSEPFLYTSLQYSTHSQKLSKKFMGEAVARAPNDPLIRHEEACVAYTAKSYAEADILFRTVLYMVTETDEIIPIEEVLKKKIDDFWHPMLNNIGHIARRQGRLNEAIMFYQKAIRMEPKFVDAIASTALCYAVLGNIDKATEFFNKALAIDPFNETIRQCLSKMIQASKESYSVDQQTLPPAYNSETYFGAQEILPYCAIRKPRNDGFVVPSIVSSSQPFMSMLRDRLRRQDQLYAQEPDNDAGNQV”, the “soluble on expression in E. coli” value was “not soluble”.

On to “MSALASKLFAKCAAGGRALQSQAVRQFSAYPIDDSMFGLNDEEIALRQSIRQFADKELAPYADKIDKDNGWDQLRPFWKKLGDQGLLGITAPAEYGGSGMNYFSHVIAMEELSRAAGGIALSYGAHSNLCINQIVRNGSEEQRKKYLPKLISGEHMGALAMSEAQAGSDVVSMKLRAEKKGDKYVLNGTKFWITNGPDADVLVVYAKTDPSKHQHGITCFLVEKNTPGFSQSPKLDKLGMRGSNTCELVFDNCEIHESQIMGGKGKGVYVLMTGLDYERLVLSGGPLGLMQAACDIAFDYAHQRTAFGQKIGSFQLLQGKLADMYTTLNASRSYLYMVAKAADKGNVSNKDCAGVILYVAEKCTQVCLDAIQILGGNGYINDYPAGRLLRDAKLYEIGAGTSEVRRLIIGRALNKEYSN”, for which the “soluble on expression in E. coli” value is reported as “not soluble”.

In the case of “MSALKSFTVNFHQEDNAKATTVHKLSEEDFNKATEKGTRHLFDLDTNVGFFVFFDAEDAEGNDQYLMLQYEGDHEEPTACYGFDLKLYYQFLALYLNDLEFQGETDEEEEEYGPIHHLAHLLYHIVEDGKSIEV”, the “soluble on expression in E. coli” value is on record as “not soluble”.

Consider “MSANQEEDKKPGDGGAHINLKVKGQDGNEVFFRIKRSTQLKKLMNAYCDRQSVDMNSIAFLFDGRRLRAEQTPDELDMEDGDEIDAMLHQTGGSGGGATA”, for which the “soluble on expression in E. coli” value is “soluble”.
